The record followed here is publication PMC1952068.

What all share (experiment): fluorescence polarization
Common to all, as to details: 10 mM Tris-HCl pH 7.5, 50 mM NaCl, no Mg2+, room temperature; FP: 1 nM duplex, 0.1 mg/mL BSA, 20 min; EMSA: 250 nM enzyme, 15 min, 6% gel

Data set [1] relates to R.Eco29kI R86A.
For data set [2], the system named is R.Eco29kI Y49A.
Data set [3] concerns R.Eco29kI wt.

Several values for one entry are separate records, joined by “and”; a condition that tells them apart may be missing. Identical values can stand only once.

As for “TTTTGGTACCGCGGCCGCAAGCTT (double strand) [24-bp duplex with Eco29kI site]”, the Kd in data set [1] is 21 nM and 344 nM^n; in data set [2], 49 nM and 529 nM^n; in data set [3], 16 nM and 299 nM^n.
